In PMC4425550 (Nature medicine, 2015):
Each block holds one molecule with its values, some of them ahead of it. Where no end group is shown, it is not given here. The star is where a group is joined. Biotin = O=C1N[C@H]2[C@H](CS[C@H]2CCCCC(=O)*)N1

Tests used:
SPHK1/2 = assay: T cell transmigration with SPHK1/2 inhibitor; assay type: cell-based, human; settings: 5 μM on endothelial cells, 30 min 37°C, washed, n=3
[1] = system: S1PR1 on memory T cells (CD3+CD45RO+); assay: S1PR1 surface expression on memory T cells on ICAM-1; assay type: cell-based, human
αLβ2 (LFA-1) = assay: LFA-1 activation epitope; assay type: cell-based, human; settings: S1P 10 µM after CXCL10 80 ng/ml, n=4
[2] = system: S1P receptor on T cells; stimulated endothelial cells; assay: T cell transmigration with exogenous S1P, B cell depleted PBL; assay type: cell-based, human
SPHK1 = assay: T cell transmigration with SPHK1 specific inhibitor; assay type: cell-based, human; settings: 5 μM on endothelial cells, 30 min 37°C, washed, n=3
S1P receptor = assay: T cell transmigration with S1P receptor antagonist; assay type: cell-based, human; settings: W146 10 μM, 30 min, washed; n=3–7
[3] = system: TNF-α&IFN-γ treated HUVEC; assay: PBL trans-endothelial migration, static, HUVEC; assay type: cell-based, human
B cells = settings: T1D and rheumatoid arthritis; cited from earlier work
recombinant CDH15-Fc = molecular target: T1, recombinant CDH15-Fc (UniProt P55291 61-606); assay: SPR
T1 sequence (looked up): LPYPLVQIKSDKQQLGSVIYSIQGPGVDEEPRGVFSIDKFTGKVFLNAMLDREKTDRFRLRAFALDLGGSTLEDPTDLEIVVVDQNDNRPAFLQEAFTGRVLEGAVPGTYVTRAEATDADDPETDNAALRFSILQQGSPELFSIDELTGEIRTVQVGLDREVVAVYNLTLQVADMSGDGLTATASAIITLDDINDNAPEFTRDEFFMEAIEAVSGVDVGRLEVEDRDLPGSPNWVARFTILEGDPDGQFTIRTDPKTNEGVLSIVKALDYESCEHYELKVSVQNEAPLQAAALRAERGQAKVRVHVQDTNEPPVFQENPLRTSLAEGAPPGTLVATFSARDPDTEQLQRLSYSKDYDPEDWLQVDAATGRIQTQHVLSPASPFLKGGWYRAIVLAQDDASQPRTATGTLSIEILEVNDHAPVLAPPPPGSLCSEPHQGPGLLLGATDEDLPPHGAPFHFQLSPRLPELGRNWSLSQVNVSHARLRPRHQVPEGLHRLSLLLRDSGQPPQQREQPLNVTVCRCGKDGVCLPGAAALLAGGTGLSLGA

[4] = system: TNF-α&IFN-γ stimulated endothelial cells; assay: PBL adhesion; assay type: cell-based, human; settings: adiponectin or PEPITEM
[5] = system: TNF-α&IFN-γ treated HUVEC; assay: PBL trans-endothelial migration under flow; settings: adiponectin pre-treated PBL, n=6
[6] = system: endothelial cells (TNF-α and IFN-γ stimulated); assay type: cell-based, human
[7] = system: lymphocytes from individuals with T1D; endothelial cells; assay: Ex vivo T cell transmigration, individuals with type-1-diabetes; settings: adiponectin 15 μg/ml or PEPITEM 10 ng/ml, n=9–22
[8] = system: α4β1, αLβ2, CXCR3, DP-2 on PBL; assay: Expression/function of integrins, CXCR3 and DP-2 on PBL, flow cytometry; assay type: cell-based, human; settings: adiponectin 15 μg/ml, n=3
[9] = system: TNF-α&IFN-γ stimulated HUVEC; assay: Gene expression of adhesion molecules and chemokines in HUVEC, real-time PCR; assay type: cell-based, human; settings: TNF-α and IFN-γ stimulated endothelial cells
HDMEC = assay: PBL transmigration across HDMEC, static; assay type: cell-based, human; settings: TNF-α&IFN-γ stimulated HDMEC, n=3–4
[10] = system: lymphocytes from individuals with rheumatoid arthritis; endothelial cells; assay: Ex vivo T cell transmigration, individuals with rheumatoid arthritis; assay type: cell-based, human; settings: adiponectin 15 μg/ml or PEPITEM 10 ng/ml, n=7–8

Molecule: CCCCCCCCCCCCC/C=C/[C@@H](O)[C@H](CO)N(C)C [N,N-Dimethylsphingosine]
ability of PEPITEM to inhibit T cell migration, SPHK1/2 inhibitor (SPHK1/2): abolished the ability of PEPITEM to inhibit T cell migration

Molecule: CCCCCCCCCCCCC/C=C/[C@@H](O)[C@@H](N)COP(=O)(O)O [S1P, Sphingosine-1-phosphate]
surface S1PR1 in the presence of exogenous S1P ([1]; CXCL10 80 ng/ml + S1P 10 μM, n=4): high expression was maintained
affinity of LFA-1, binding to ICAM-1 (αLβ2 (LFA-1)): down-regulates the affinity
T cell migration on adding exogenous S1P ([2]; S1P 0.0001 to 100 μM, 30 min, purified T cells / B cell depleted PBL, n=3–6): mimicked dose-dependently
T cell transmigration at total circulating S1P concentration ([2]; S1P ≈0.2 μM): inhibited T cell transmigration efficiently

Molecule: CCCCCCCCCCCCCC#CC(=O)[C@@H]1COC(C)(C)N1C(=O)OC(C)(C)C [SPHK1 inhibitor, 2,2-dimethyl-4S-(1-oxo-2-hexadecyn-1-yl)-1,1-dimethylester-3-oxazolidinecarboxylic acid]
ability of PEPITEM to inhibit T cell migration, SPHK1 inhibitor (SPHK1): abolished the ability of PEPITEM to inhibit T cell migration

Molecule: CCCCCCc1cccc(NC(=O)[C@H](N)CCP(=O)(O)O)c1 [W146]
T cell migration in the presence of adiponectin and PEPITEM with S1P receptor antagonist (S1P receptor): released T cells from the inhibitory effects of both adiponectin and PEPITEM

Molecule: CXCL10: chemokine
surface S1PR1 on memory T cells on ICAM-1 ([1]; CXCL10 80 ng/ml, n=6): rapid up-regulation of surface S1PR1

Molecule: PEPITEM with a biotin conjugate on the N-terminus: PEPITEM with a biotin conjugate on the N-terminus (Biotin-SVTEQGAELSNEER)
efficacy in functional migration assay [3]: full efficacy

Molecule: rituximab: monoclonal antibody, B cell depletion
clinical effect of B cell depletion (B cells): beneficial effects

Kd (recombinant CDH15-Fc): 109 µM
Molecule: Biotin-SVTEQGAELSNEER [N-terminus biotinylated PEPITEM (PEPtide Inhibitor of Trans-Endothelial Migration)]

B1: adiponectin: circulating adipokine (protein, UniProt Q15848 19-244, looked up)
Adiponectin: ETTTQGPGVLLPLPKGACTGWMAGIPGHPGHNGAPGRDGRDGTPGEKGEKGDPGLIGPKGDIGETGVPGAEGPRGFPGIQGRKGEPGEGAYVYRSAFSVGLETYVTIPNMPIRFTKIFYNQQNHYDGSTGKFHCNIPGLYYFAYHITVYMKDVKVSLFKKDKAMLFTYDQYQENNVDQASGSVLLHLEVGDQVWLQVYGEGERNGLYADNDNDSTFTGFLLYHDTN
firm adhesion of PBL (surface adherent cells) [4]: more cells were firmly adherent to the apical surface of the endothelium
PBL transmigration under flow [5]: effects of adiponectin on PBL migration were seen
T cell migration with supernatants from adiponectin stimulated B cells ([6]; B cells 100,000, adiponectin 15 μg/ml 1 h): as effective as addition of B cells themselves
T cell migration after depleting B cells from PBL ([6]; adiponectin treated, n=3–7): T cells were released from the inhibitory effects of adiponectin
T cell migration after adding back purified B cells ([6]; adiponectin, n=3–7): could reconstitute the adiponectin-dependent inhibition of T cell migration
T cell migration, individuals with T1D [7]: no longer an inhibition of T cell migration
expression and/or function of integrins (α4β1, αLβ2), CXCR3, DP-2 on PBL [8]: did not alter
gene expression of adhesion molecules and chemokines [9]: did not modulate
PBL transmigration on HDMEC (HDMEC): evident
T cell migration, individuals with rheumatoid arthritis [10]: no longer an inhibition of T cell migration
PBL trans-endothelial migration ([3]; TNF-α and IFN-γ stimulated HUVEC, static): dose-dependently inhibited
EC50 for inhibition of PBL trans-endothelial migration (mass concentration) ([3]; adiponectin, PBL pre-treated 1 h and washed, TNF-α and IFN-γ stimulated, static): 0.94 µg/mL
